Measurements taken from IntAct's records for PubMed 17693255.

B1: Hamartin (Homo sapiens), Q92574 (parent)
chain: MAQQANVGELLAMLDSPMLGVRDDVTAVFKENLNSDRGPMLVNTLVDYYLETSSQPALHILTTLQEPHDKHLLDRINEYVGKAATRLSILSLLGHVIRLQPSWKHKLSQAPLLPSLLKCLKMDTDVVVLTTGVLVLITMLPMIPQSGKQHLLDFFDIFGRLSSWCLKKPGHVAEVYLVHLHASVYALFHRLYGMYPCNFVSFLRSHYSMKENLETFEEVVKPMMEHVRIHPELVTGSKDHELDPRRWKRLETHDVVIECAKISLDPTEASYEDGYSVSHQISARFPHRSADVTTSPYADTQNSYGCATSTPYSTSRLMLLNMPGQLPQTLSSPSTRLITEPPQATLWSPSMVCGMTTPPTSPGNVPPDLSHPYSKVFGTTAGGKGTPLGTPATSPPPAPLCHSDDYVHISLPQATVTPPRKEERMDSARPCLHRQHHLLNDRGSEEPPGSKGSVTLSDLPGFLGDLASEEDSIEKDKEEAAISRELSEITTAEAEPVVPRGGFDSPFYRDSLPGSQRKTHSAASSSQGASVNPEPLHSSLDKLGPDTPKQAFTPIDLPCGSADESPAGDRECQTSLETSIFTPSPCKIPPPTRVGFGSGQPPPYDHLFEVALPKTAHHFVIRKTEELLKKAKGNTEEDGVPSTSPMEVLDRLIQQGADAHSKELNKLPLPSKSVDWTHFGGSPPSDEIRTLRDQLLLLHNQLLYERFKRQQHALRNRRLLRKVIKAAALEEHNAAMKDQLKLQEKDIQMWKVSLQKEQARYNQLQEQRDTMVTKLHSQIRQLQHDREEFYNQSQELQTKLEDCRNMIAELRIELKKANNKVCHTELLLSQVSQKLSNSESVQQQMEFLNRQLLVLGEVNELYLEQLQNKHSDTTKEVEMMKAAYRKELEKNRSHVLQQTQRLDTSQKRILELESHLAKKDHLLLEQKKYLEDVKLQARGQLQAAESRYEAQKRITQVFELEILDLYGRLEKDGLLKKLEEEKAEAAEAAEERLDCCNDGCSDSMVGHNEEASGHNGETKTPRPSSARGSSGSRGGGGSSSSSSELSTPEKPPHQRAGPFSSRWETTMGEASASIPTTVGSLPSSKSFLGMKARELFRNKSESQCDEDGMTSSLSESLKTELGKDLGVEAKIPLNLDGPHPSPPTPDSVGQLHIMDYNETHHEHS

Variants of: B1
Settings: with tsc2_human TSC2, P49815
tsc2_human TSC2, P49815, sequence (P49815 whole entry): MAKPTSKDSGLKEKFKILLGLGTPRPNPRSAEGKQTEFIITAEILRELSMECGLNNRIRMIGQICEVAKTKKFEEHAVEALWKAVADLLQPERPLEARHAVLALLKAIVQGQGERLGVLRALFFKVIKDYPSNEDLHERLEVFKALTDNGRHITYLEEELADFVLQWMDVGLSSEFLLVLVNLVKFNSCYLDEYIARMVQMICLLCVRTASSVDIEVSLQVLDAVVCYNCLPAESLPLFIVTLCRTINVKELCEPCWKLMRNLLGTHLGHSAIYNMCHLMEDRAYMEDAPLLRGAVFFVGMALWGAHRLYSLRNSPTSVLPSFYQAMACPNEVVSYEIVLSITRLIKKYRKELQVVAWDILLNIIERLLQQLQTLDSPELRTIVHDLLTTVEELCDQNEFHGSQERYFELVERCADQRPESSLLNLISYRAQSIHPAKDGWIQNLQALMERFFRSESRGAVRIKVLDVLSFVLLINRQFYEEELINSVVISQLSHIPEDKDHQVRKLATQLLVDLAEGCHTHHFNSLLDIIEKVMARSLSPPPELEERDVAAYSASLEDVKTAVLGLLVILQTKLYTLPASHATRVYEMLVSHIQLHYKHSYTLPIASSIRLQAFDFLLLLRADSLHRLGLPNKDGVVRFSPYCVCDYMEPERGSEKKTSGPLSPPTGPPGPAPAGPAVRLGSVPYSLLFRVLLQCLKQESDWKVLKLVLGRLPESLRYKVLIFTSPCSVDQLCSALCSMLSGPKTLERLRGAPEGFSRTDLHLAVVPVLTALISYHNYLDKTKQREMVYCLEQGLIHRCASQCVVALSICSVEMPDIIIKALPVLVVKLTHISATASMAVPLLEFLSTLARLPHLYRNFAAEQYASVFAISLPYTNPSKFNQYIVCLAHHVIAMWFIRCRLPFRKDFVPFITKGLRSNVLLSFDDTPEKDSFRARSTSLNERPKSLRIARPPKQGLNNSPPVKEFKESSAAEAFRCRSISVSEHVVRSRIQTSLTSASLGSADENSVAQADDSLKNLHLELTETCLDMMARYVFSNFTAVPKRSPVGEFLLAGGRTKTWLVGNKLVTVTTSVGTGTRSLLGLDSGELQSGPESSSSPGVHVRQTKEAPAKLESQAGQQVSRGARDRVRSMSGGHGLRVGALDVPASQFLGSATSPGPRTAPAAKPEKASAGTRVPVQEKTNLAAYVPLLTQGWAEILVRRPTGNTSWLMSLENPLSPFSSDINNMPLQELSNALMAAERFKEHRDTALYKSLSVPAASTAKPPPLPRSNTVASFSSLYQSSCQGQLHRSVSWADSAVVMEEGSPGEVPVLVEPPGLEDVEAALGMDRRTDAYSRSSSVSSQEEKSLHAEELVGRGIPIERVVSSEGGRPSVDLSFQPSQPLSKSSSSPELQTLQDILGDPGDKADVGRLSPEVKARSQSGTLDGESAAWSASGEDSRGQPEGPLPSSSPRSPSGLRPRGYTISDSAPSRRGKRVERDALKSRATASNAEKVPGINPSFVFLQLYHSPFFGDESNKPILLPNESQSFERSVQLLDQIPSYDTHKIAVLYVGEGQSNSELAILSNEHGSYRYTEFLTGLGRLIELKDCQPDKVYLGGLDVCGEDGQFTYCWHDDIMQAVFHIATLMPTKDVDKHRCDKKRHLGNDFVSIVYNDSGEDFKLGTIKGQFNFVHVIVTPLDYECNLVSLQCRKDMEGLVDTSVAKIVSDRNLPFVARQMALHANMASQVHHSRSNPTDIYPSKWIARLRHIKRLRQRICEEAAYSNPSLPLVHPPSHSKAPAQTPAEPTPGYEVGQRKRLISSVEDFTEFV

Variant	effect of a mutation on the interaction
S487D;S511D	decreasing interaction
